Source: the RNAGym collection of RNA variant scans (doi:10.1073/pnas.2313332121)
Variants at the floor of the assay were thinned out.

B1: TPR 5TU (parent)
chain: GGAUCUUCUCGAUCUAACAAAAAAGACAAAUCUGCCACAAAGCUUGAGAGCAUCUUCGGAUGCAGAGGCGGCAGCCUUCGGUGGCGCGAUAGCGCCAACGUUCUCAACUAUGACACGCAAAACGCGUGCUCCGUUGAAUGGAGUUUAUCAUG

Variants of: B1
Test: polymerase ribozyme fitness, log enrichment relative to wild type (log ratio); higher = more active; in vitro selection for triplet polymerase activity
Method in brief: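 For each subunit of a heterodimeric triplet polymerase ribozyme, a mutant library was built by PCR and transcribed, then taken through a single in vitro selection round in triplicate. Selection involved annealing to a biotinylated primer, the partner subunit and triplets, incubation frozen at −7 °C, gel excision of extended constructs, capture on streptavidin beads and RT-PCR. Genotypes were retained after Illumina sequencing of inputs and outputs only with ≥10 input reads and ≥1 read in each output. Fitness is defined as the logarithm of a genotype's enrichment relative to wild-type enrichment, using inverse-variance-weighted averages across replicates, with the logarithm taken to base 2.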

Compared with C95A G100U A106G A110G A142U, C93U G140C is higher in “polymerase ribozyme fitness (log ratio)” value: -4.01 for the first, -3.57 for the second.

First: C93U G140A
Second: C93A G128C C132G A138G U148G
The “polymerase ribozyme fitness (log ratio)” value of the first is higher: -3.82 for the first, at most -4.2 for the second.

First: A91U A147C
Second: C87G G126A
The “polymerase ribozyme fitness (log ratio)” value of the first is lower: at most -4.2 for the first, -4.11 for the second.

Compared with C87U U148G, A91G C95U is higher in “polymerase ribozyme fitness (log ratio)” value: -3.83 for the first, -2.75 for the second.

First: C87A U90C C105U
Second: C93U G124A C131U U139G
The “polymerase ribozyme fitness (log ratio)” value of the first is lower: -3.59 for the first, 0.429 for the second.

Going from C87G C132U to C93A A122U, the “polymerase ribozyme fitness (log ratio)” value rises from at most -4.2 to -2.45.

Going from C96G C105U A113C A121U to G88A C105U, the “polymerase ribozyme fitness (log ratio)” value falls from -2.76 to -3.72.

First: C87U C96U U104C A107U G141U
Second: C95A C96G
The “polymerase ribozyme fitness (log ratio)” value of the first is lower: at most -4.2 for the first, -2.25 for the second.

Going from C93A A115G C116U to C87U C149A, the “polymerase ribozyme fitness (log ratio)” value falls from -2.39 to -3.78.

C93G U146G C149U and C96U A137C are within 0.2 log units of each other in “polymerase ribozyme fitness (log ratio)” value: -3.51 for the first, -3.39 for the second.

First: C96U A110G
Second: G92A A98U U111A C123U U144A A150C
The “polymerase ribozyme fitness (log ratio)” value of the first is higher: -3.55 for the first, at most -4.2 for the second.

First: A91C U104A
Second: C87U G112A
The “polymerase ribozyme fitness (log ratio)” value of the first is lower: at most -4.2 for the first, -3.91 for the second.

Compared with C93A C99A, A89U G92U A121C G140U is higher in “polymerase ribozyme fitness (log ratio)” value: at most -4.2 for the first, -3.5 for the second.

First: C96U A119C
Second: C95U A122C U130G U139A
The “polymerase ribozyme fitness (log ratio)” value of the first is higher: -1.05 for the first, -4.01 for the second.

Going from C96G G143A to C96G G143U, the “polymerase ribozyme fitness (log ratio)” value falls from -2.42 to -3.01.

First: A89G A120C
Second: C96A A107U
The “polymerase ribozyme fitness (log ratio)” value of the first is higher: -1.41 for the first, -2.87 for the second.

C96A A107G and C93G C103G C118A G136U U146C cannot be ordered by “polymerase ribozyme fitness (log ratio)” value: -4.2 for the first, at most -4.2 for the second.

Going from A91C U102A C132U to C96A C118A, the “polymerase ribozyme fitness (log ratio)” value rises from -3.54 to -0.912.

Going from C87G A122U C129U U134C to C95U C96G, the “polymerase ribozyme fitness (log ratio)” value rises from at most -4.2 to -0.577.

First: C95U C96U
Second: G92A A147U
The “polymerase ribozyme fitness (log ratio)” value of the first is higher: -1.18 for the first, -1.84 for the second.

G94A A119C C132G A138U and U90G G141U cannot be ordered by “polymerase ribozyme fitness (log ratio)” value: at most -4.2 for the first, at most -4.2 for the second.

Going from G94A C132G to C93A G100U U102G G117U A138C, the “polymerase ribozyme fitness (log ratio)” value falls from -3.64 to at most -4.2.

Compared with C87G G94C A98G, A91G U144C is higher in “polymerase ribozyme fitness (log ratio)” value: -3.08 for the first, -2.47 for the second.

Compared with C96A G126A, A89U U144C is higher in “polymerase ribozyme fitness (log ratio)” value: -1.95 for the first, 0.497 for the second.

Compared with C93U G136U, C96G A121U is higher in “polymerase ribozyme fitness (log ratio)” value: -3.31 for the first, -0.582 for the second.

Compared with G92U C116G C132G, G94C C96U G112C U146C is lower in “polymerase ribozyme fitness (log ratio)” value: -3.8 for the first, at most -4.2 for the second.

Going from C93U U109G U144G to C96A C103A U135A U145A, the “polymerase ribozyme fitness (log ratio)” value falls from -1.39 to -1.96.

First: C93G A119G
Second: G92U A122U G141C
The “polymerase ribozyme fitness (log ratio)” value of the first is lower: -3.48 for the first, -0.707 for the second.

Compared with A91C G100U, C87U C93G is higher in “polymerase ribozyme fitness (log ratio)” value: at most -4.2 for the first, -4.18 for the second.

C87U C93A and C93G A98C A120U are within 0.2 log units of each other in “polymerase ribozyme fitness (log ratio)” value: -3.93 for the first, -3.94 for the second.

Compared with A89G A142C, G94C C96U A113U A115U U130C A137G is lower in “polymerase ribozyme fitness (log ratio)” value: -1.45 for the first, at most -4.2 for the second.

Going from C93U C105G to C93A U127G, the “polymerase ribozyme fitness (log ratio)” value falls from -3.36 to -4.05.

Going from C93G C105U A137G to G94A C118A, the “polymerase ribozyme fitness (log ratio)” value rises from -4.06 to -0.879.

First: G94A C118G
Second: C96U A115G U148A
The “polymerase ribozyme fitness (log ratio)” value of the first is higher: -1.61 for the first, -3.95 for the second.

Compared with A91G G141C, A91G G141U is higher in “polymerase ribozyme fitness (log ratio)” value: -2.86 for the first, -1.92 for the second.

First: C87G A115U C116G
Second: G88U G92C G117U
The “polymerase ribozyme fitness (log ratio)” value of the first is lower: -3.97 for the first, -3.57 for the second.

First: C93U C103U
Second: C93U C103G
The “polymerase ribozyme fitness (log ratio)” value of the first is higher: -1.61 for the first, -3.63 for the second.

A91U U111G U127C and C93U G133C U134A G140A cannot be ordered by “polymerase ribozyme fitness (log ratio)” value: at most -4.2 for the first, at most -4.2 for the second.

First: C93U C116G
Second: G88C C131G U151G
The “polymerase ribozyme fitness (log ratio)” value of the first is higher: -2.2 for the first, at most -4.2 for the second.

Compared with C96U A110G C114U A142G, G88C G100A is lower in “polymerase ribozyme fitness (log ratio)” value: -4.07 for the first, at most -4.2 for the second.

C87A G88U and C93A C103A U135A A138G cannot be ordered by “polymerase ribozyme fitness (log ratio)” value: at most -4.2 for the first, at most -4.2 for the second.

In the case of G94U G141U, the “polymerase ribozyme fitness (log ratio)” value is reported as -0.082.
